Target: human IFNγ (human) (UniProt P01579)
Assay: cell-based or functional assay

Chain of UniProt P01579 (P01579 24-166 limits assumed): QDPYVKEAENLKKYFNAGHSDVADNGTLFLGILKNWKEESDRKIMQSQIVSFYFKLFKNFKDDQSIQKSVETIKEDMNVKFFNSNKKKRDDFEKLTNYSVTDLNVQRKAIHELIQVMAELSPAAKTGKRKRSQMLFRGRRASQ

## Amg-HL, anti-IFNγ scFv from AMG811 (heavy chain variable region to light chain variable region)
  inhibition of IFNγ signaling at dilution 0.5 of supernatant, HEK-Blue IFNγ reporter cells: 80%

— patent US20230149465A1
